We go through one molecule from patent publication US10240180B2, “Multiplexed screening of enzyme activities using nanostructure-initiator mass spectrometry” (The Regents of the University of California, priority 2011, dated 2019).

Type in all cases: biochemical
The nature of data set [1]: Multiplexed β-glucosidase/β-xylosidase assay with known enzymes, xylobiose substrate. Conditions: equal amounts CB-F17 and XB-F17 (0.1 mM each), 1 h. The source says: (§1) It can be difficult to discriminate between several products in simultaneous reactions using conventional spectroscopic methods since these reactions typically yield the same outputs and there are only a few unique absorption or emission patterns that can be resolved separately. In contrast, mass spectrometry can resolve thousands of ions and therefore we have discovered that it is well-suited for the parallel detection of large numbers of reaction products where the substrates and occurring products differ in mass. This is the case, for example, when using pentose and hexose-based substrates at the same time. The hydrolysis of polysaccharides with identical masses (e.g. cellobiose and maltose) can even be analyzed in the same run by using different chemical structures in the linker or perfluorinated tags of varying length. Thus, potentially dozens of enzymatic conversions can be tested simultaneously using this method. Here both β-glucosidase and β-xylosidase activities were detected simultaneously utilizing a substrate cocktail comprised of equal amounts of CB-F17 and XB-F17. In the non-enzyme control only signals for cellobiose and xylobiose were detectable (FIG. 5a). […]
(§2) In each case 0.5-1 μL per quenched reaction sample was spotted onto the NIMS surface and removed after an incubation of ˜30 s. […] Enzyme activities were determined by forming product-to-substrate ratios.

Data set [2] in a line: Multiplexed β-glucosidase/β-xylosidase assay with known enzymes, cellobiose substrate. Conditions: equal amounts CB-F17 and XB-F17 (0.1 mM each), 1 h.
Description: as §1, §2

Data set [3] is described as follows: Separate analysis of β-xylosidase activity (NIMS). Conditions: XB-F17 substrate, 1 h. The protocol:
The separate characterization of β-glucosidase and β-xylosidase activity was carried out in reaction volumes of 20-50 μL, by mixing 0.1 mM cellobiose with 8 μg of NS50010 in 50 mM sodium acetate buffer (pH 4.8), or 0.1 mM xylobiose with 0.13 μg (in […]) or 0.33 μg (in 50 μL) of 1,4-β-D-xylosidase in 50 mM potassium phosphate buffer (pH 7.5) with 1 mg/mL BSA. For the competition studies with cellobiose, samples additionally contained 10, 25, or 50 mM of unlabeled cellobiose (Sigma-Aldrich; St. Louis, Mo.). Other buffers used for the determination of the pH optima were McIlvaine's citrate/phosphate buffer (pH 2.6 and 6.0), 50 mM Tris buffer (pH 9.0) for NS50010, and 50 mM potassium phosphate buffer (pH 6.0), 50 mM Tris buffer (pH 9.0), 50 mM sodium borate buffer (pH 11.0), all with 1 mg/mL BSA for the β-xylosidase. Samples were incubated for 1 h at 35° C. (β-xylosidase) or 50° C. […]
In FIG. 4a, the determined temperature optima for the used enzymes were 50-60° C. for β-glucosidase (black) and 35° C. for β-xylosidase (gray). In FIG. 4b, the determined pH optima were around pH 4.8 for β-glucosidase (black) and around pH 7.5 for β-xylosidase (gray). […]
as §2

B1: β-xylosidase: 1,4-β-D-xylosidase from Bacillus pumilus purchased from Megazyme (protein, UniProt P07129 1-535, looked up)
Beta-xylosidase: MKITNPVLKGFNPDPSICRAGEDYYMAVSTFEWFPGVQIYHSKDLIHWRLAARPLQKTSQLDMKGNPDSGGVWAPCLSYADGQFWLIYSDIKVVDGPFKDGHNYLVTADAVDGEWSDPVRLNSSGFDPSLFHDPSGKKYVLNMLWDHREKHHSFAGIALQEYSVSEKKLVGERKVIFKGTPIKLTEAPHLYYINDVYYLLTAEGGTRYEHAATIARSSRIDGPYEVHPDNPILTAFHAPSHPLQKCGHASIVQTHTNEWYLAHLTGRPIHSSKESIFQQRGWCPLGRETAIQKLEWKDGWPYVVGGKEGLLEVEAPAMSVKEFSPTYHIVDEFKDSSLNRHFQTLRIPFTDQIGSVTENPHHLRLYGQESLTSKFTQAFVARRWQSFYFEAETAVSFFPKNFQQAAGLVNYYNTENWTALQVTYDDALGRILELSVCENLAFSQPLIKKIIIPDEIPYVYLKVTVQRETYTYSYSFDQQEWEKIDVPLESTHLSDDFIRGGGFFTGAFVGMQCQDTSGERLPADFKYFRYEETTE
For B1, in data set [1], the “cleavage of xylobiose (XB-F17) in substrate cocktail” value is on record as “conversion of xylobiose to xylose”. Also, the “cleavage of cellobiose (CB-F17) in substrate cocktail” value in data set [2] was “no enzymatic cleavage of cellobiose”. In data set [3], this molecule gave a temperature optimum of 35 °C. In data set [3] (35° C.), the pH optimum was around 7.5 pH.
